“Also recorded” adds a separate entry of the source. Non-standard residues stand in square brackets, D forms with d. Residues, ends and D or L forms follow the SMILES beside them.
Key:
[1] = test system: red blood cells of LDL receptor deficient mice; assay: In vitro red cell lysis after gavage of D peptides; format: in vivo, mouse; details: 100 μg by gavage, blood 17 and 48 hrs later
Description: Red cells were separated by centrifugation, were diluted to 10% hematocrit with PBS and incubated at 37° C. with gentle mixing. Aliquots were removed at time points t=0, 2, 6 and 18 hrs, cell pellets spun down and the optical density due to the released hemoglobin determined.

[2] = Antibody formation against D-2F (other studies); format: in vivo
[3] = test system: human artery wall cell cocultures; assay: Lipoproteins from mice given peptide by gavage tested in human artery wall cell cocultures (monocyte chemotactic activity); details: for resistance of circulating mouse LDL to oxidation (monocyte chemotactic activity): 100 μg by gavage, LDL receptor-deficient mice, blood 17 hrs later; for monocyte chemotaxis induced by LDL from mice given 2F by gavage: D versus L form by gavage
Description: Groups of LDL receptor-deficient mice (n=3) were administered the D-peptides or the saline vehicle by gavage. […] Blood was collected from retroorbital sinus under mild anesthesia 17 hrs later. LDL was isolated from plasma by FPLC. Cocultures of artery wall cells were incubated with medium alone (NO ADDITION), control LDL from normal subjects (LDL), LDL plus control HDL from normal subjects (+HDL). […] The cocultures were incubated for 4 hrs at 37° C. in the presence of 10% LPDS. The supernatants were then discarded, the cocultures were washed and incubated with culture medium without serum or LPDS for an additional 4 hrs. This conditioned medium was collected and analyzed for monocyte chemotactic activity. The values are mean±SD of quadruplicate cocultures.
Blood was collect after 6 hrs, plasma HDL and LDL were isolated by gel filtration (FPLC) and examined in the cocultures. […] Human LDL at 200 μg protein/ml was added to human artery wall cell cocultures together with human HDL (hHDL) at 350 μg protein/ml or mouse HDL (mHDL) at 100 μg cholesterol/ml taken from mice that received saline (Saline Rx) or L-4F (L-4F Rx) or D-4F (D-4F Rx) and monocyte chemotactic activity was determined as described herein. […] On the right, mouse LDL (mLDL) was isolated from mice receiving saline (Saline Rx) or L-4F (L4F Rx) or D-4F (D-4F Rx) and was added at 100 μg cholesterol/ml to the artery wall cell cocultures without HDL and monocyte chemotactic activity determined. Values are mean±SD) for four wells in two independent experiments.
Either saline or 2F synthesized from D amino acids or from L amino acids was instilled in the stomachs of mice by gavage (instillation in the stomach by tube). After gavage the mice were bled and their LDL isolated and added to the human artery wall cell cocultures.
The animals were bled 1.5, 3 or 6 hours later and their HDL, LDL, and VLDL/IDL isolated.
Human aortic endothelial and smooth muscle cells were isolated and cultured as previously described (Id.). Cellular oxidation of LDL in the presence and absence of HDL was determined as described (Id.). Human blood monocytes were isolated after obtaining informed consent and monocyte chemotaxis was determined as described previously^5.

[4] = test system: Human aortic wall cocultures; assay: LDL plus peptide in vitro in human aortic wall cocultures, monocyte chemotactic activity (Example 2); format: cell-based; details: control LDL 250 μg/ml plus varying amounts of peptide
Description: Human aortic wall cocultures were incubated with medium alone (LDL, NO CELLS or CELLS, NO LDL, see FIG. 9), control LDL from normal subjects at 250 μg/ml (LDL) and LDL plus control HDL from normal subjects at 350 μg/ml (+HDL). Other cocultures were incubated With the control LDL together with varying amounts (micrograms shown on the abscissa) of either D-2F, or L-2F (third panel from the left, 2F) or D-37-pA or L-37pA (last panel on the right, 37pA). The data represent mean±SD of values obtained from quadruplicate cocultures.

[5] = mouse, in vivo
Description: The 5F peptide, MoAI, and human apo A-I were labeled with ^125I by the method of Bilheimer et al. (1972) Biochim. Biophys. Acta 260: 212–221. Mice were placed on a modified Thomas-Hartroft atherogenic diet (#TD88051; Teklad, Madison, Wis.) for four weeks at which time daily intraperitoneal injections of peptide or protein dissolved in 200 μl phosphate-buffered saline (PBS) were begun. Animals injected with MoAI or human apo A-I received 50 μg per animal; those injected with 5F received 20 μg. Animals were not fasted for the kinetic studies and blood samples were taken under xylazine:ketamine anesthesia from the retro-orbital sinus at 15, 30, and 45 minutes, and 1, 1.5, 2, 3, 4, 6, 8, 12, and 24 hours following injection. Each animal provided three blood samples at different time points (all retro-orbital and alternating eyes), and at least three samples were collected (from different animals) at each time point. Samples were collected into heparinized capillary tubes, then placed in microcentrifuge tubes; the plasma was separated by centrifugation. Duplicate 10 μl aliquots of each sample were taken for radioactivity determination, using gamma counting (Cobra; Packard Instruments, Downers Grove, Ill.) for 10 minutes per sample. Total plasma volume was calculated as 4.2% body weight. Each sample was expressed as percent of injected CPM in total plasma. Free ^125I was determined by trichloroacetic acid (TCA) precipitation (1 ml of 10% TCA per 10 μl plasma sample). Fitting to the kinetic model was done using all data points, rather than averages at each time point (PKAnalyst, MicroMath Scientific Software, Salt Lake City, Utah).
Treatment groups were compared by two-tailed t-tests or one way analysis of variance (where the data were normally distributed), or by one way analysis of variance on ranks (SigmaStat; SPSS Science, Chicago, Ill.). Kinetics of peptide or protein turnover were analyzed by fitting to a first order one-compartment kinetic model assuming non-equal input and output rates (PKAnalyst; MicroMath Scientific Software, Salt Lake City, Utah).

[6] = Antibody detection by indirect ELISA after 16 weeks of daily injection; format: in vivo, mouse; details: plasma at conclusion of 16-week injection period
Description: To determine whether daily injections of peptides elicited any immune response in mice, indirect ELISA titration (Engvall (1980) Meth. Enzymol. 70:419–439) was carried out with plasma taken from mice at the time of organ collection (following sixteen weeks of daily injection). Plates were coated with the injected peptides or MoAI (10 μg/ml). Plates were incubated overnight. After thorough washing with borate buffered saline (pH 8.2) containing 0.05% Tween 20, and blocking with buffer (0.1% gelatin and 0.1% BSA in borate buffer) for 1 h, 200 μl of the diluted mouse plasma (1:100 dilution) samples were serially diluted 1:1 with borate-buffered saline. Biotinylated goat antibody to mouse IgG (0.1 μg/ml) was then added to the wells and the plates were treated with SA-HRP (Streptavidin-horse radish peroxidase) for an hour and developed with ABTS and peroxide as substrate. The plates were incubated overnight at room temperature after every addition of antigen/antibody and washed thoroughly with borate buffered saline (pH 8.2) containing 0.05% Tween 20, and blocked with buffer (0.1% gelatin and 0.1% BSA in borate buffer) for 1 h before the next addition.

[7] = Plasma cholesterol lipoprotein profiles (CLiP); format: in vivo, mouse; details: 16 weeks atherogenic diet, daily i.p.
Description: Plasma cholesterol lipoprotein profiles were measured using our recently-developed CLiP method (Garber et al. (2000) J. Lipid Res. 41:1020–1026). Briefly, 5 to 10 μl of plasma were analyzed using a single Superose 6 (Pharmacia, Piscataway N.J.) column. Immediately following the column, cholesterol reagent was introduced through a mixing tee, and the eluent:reagent mixture entered a post-column reaction coil. Cholesterol content of the eluent mixture was spectrophotometrically detected at 500 nm, and data points were collected into a computer. The resulting profiles were decomposed into component peaks and analyzed for relative area using PeakFit (SPSS Science, Chicago, Ill.); absolute cholesterol values for total cholesterol and each component peak were determined by comparison with a control sample of known values. In some cases fractions were collected to determine distribution of radioactivity. The CLiP method allowed analysis of individual mouse samples, avoiding the use of pooled samples.

[8] = test system: C57BL/6J mice fed an atherogenic diet; assay: Aortic lesion formation, daily intraperitoneal injection for 16 weeks, atherogenic diet; format: in vivo, mouse; details: 5F 20 μg or MoAI 50 μg daily i.p.
Description: The livers were removed and weighed.
Histological evaluations were performed according to the method of Paigen et al. (Paigen et al. (1990) Arteriosclerosis 10: 316–323) with some modifications. Briefly, hearts were fixed for at least one week in the phosphate-buffered formaldehyde solution. After removing the lower ⅔ of the hearts, the remaining tissue was frozen in OCT medium (Tissue-Tek, Miles Inc., Elkhart, Ind.) and sectioned in a cryostat at −20° C. Alternate 20 μm sections were saved on slides, and observed for the beginning of the aortic root. Sections were then collected for an additional 600 μm, or until the aortic cross-section was rounded and the valve cusps were no longer evident. Slides were stained with Oil Red O, and counterstained with hematoxylin. Stained lesion cross-sectional areas were measured in consecutive slides 80 μm apart by image analysis (SigmaScan Pro, SPSS Scientific, Chicago, Ill.), and the average lesion area was determined for each aortic sinus over the 400 μm length (five slides) providing the greatest mean lesion area.

[9] = Survival, toxicity, body and liver weights after 16 weeks of injection
Description: Mice were acquired at six weeks of age, and randomized into groups of 20, except that a negative control group of 10 received no treatments and was given standard rodent chow. At eight weeks of age, the treatment groups were placed on a modified Thomas-Hartroft atherogenic diet (#TD88051; Teklad, Madison, Wis.), and injections were begun. […] Animals were injected intraperitoneally daily for 16 weeks, including weekends and holidays.
At the end of the study (week 16), at the last bleeding, the heart and the liver were excised. […] The livers were removed and weighed.

[10] = after 16 weeks, atherogenic diet, daily i.p., mean ± SEM

CC(=O)N[C@H](CC(=O)O)C(=O)N[C@H](Cc1c[nH]c2ccccc12)C(=O)N[C@H](CC(C)C)C(=O)N[C@H](CCCCN)C(=O)N[C@H](C)C(=O)N[C@H](Cc1ccccc1)C(=O)N[C@H](Cc1ccc(O)cc1)C(=O)N[C@H](CC(=O)O)C(=O)N[C@H](CCCCN)C(=O)N[C@@H](C(=O)N[C@H](C)C(=O)N[C@H](CCC(=O)O)C(=O)N[C@H](CCCCN)C(=O)N[C@H](CC(C)C)C(=O)N[C@H](CCCCN)C(=O)N[C@H](CCC(=O)O)C(=O)N[C@H](C)C(=O)N[C@H](Cc1ccccc1)C(N)=O)C(C)C [Peptide D-2F, Ac-D-W-L-K-A-F-Y-D-K-V-A-E-K-L-K-E-A-F-NH2] (Ac-[dD][dW][dL][dK][dA][dF][dY][dD][dK][dV][dA][dE][dK][dL][dK][dE][dA][dF]-NH2)
red cell lysis (hemolysis) after gavage [1]: resistant to hemolysis | antibody formation against the peptide [2]: not seen evidence of antibody formation | resistance of circulating mouse LDL to oxidation (monocyte chemotactic activity) [3]: resistant to oxidation | monocyte chemotaxis induced by LDL from mice given 2F by gavage [3]: reduced monocyte chemotaxis | monocyte chemotactic activity induced by LDL treated with peptide in vitro [4]: significantly different from LDL; also recorded: equally able to block LDL oxidation and LDL-induced monocyte chemotactic activity

CC(C)C[C@@H](NC(=O)[C@@H](Cc1c[nH]c2ccccc12)NC(=O)[C@H](N)CC(=O)O)C(=O)N[C@H](CCCCN)C(=O)N[C@H](C)C(=O)N[C@H](Cc1ccccc1)C(=O)N[C@H](Cc1ccc(O)cc1)C(=O)N[C@H](CC(=O)O)C(=O)N[C@H](CCCCN)C(=O)N[C@@H](C(=O)N[C@H](C)C(=O)N[C@H](CCC(=O)O)C(=O)N[C@H](CCCCN)C(=O)N[C@H](CC(C)C)C(=O)N[C@H](CCCCN)C(=O)N[C@H](CCC(=O)O)C(=O)N[C@H](C)C(=O)N[C@H](Cc1ccccc1)C(=O)N1CCC[C@@H]1C(=O)N[C@H](CC(=O)O)C(=O)N[C@H](Cc1c[nH]c2ccccc12)C(=O)N[C@H](CC(C)C)C(=O)N[C@H](CCCCN)C(=O)N[C@H](C)C(=O)N[C@H](Cc1ccccc1)C(=O)N[C@H](Cc1ccc(O)cc1)C(=O)N[C@H](CC(=O)O)C(=O)N[C@H](CCCCN)C(=O)N[C@@H](C(=O)N[C@H](C)C(=O)N[C@H](CCC(=O)O)C(=O)N[C@H](CCCCN)C(=O)N[C@H](CC(C)C)C(=O)N[C@H](CCCCN)C(=O)N[C@H](CCC(=O)O)C(=O)N[C@H](C)C(=O)N[C@H](Cc1ccccc1)C(=O)O)C(C)C)C(C)C [Peptide D-37pA] (H-[dD][dW][dL][dK][dA][dF][dY][dD][dK][dV][dA][dE][dK][dL][dK][dE][dA][dF][dP][dD][dW][dL][dK][dA][dF][dY][dD][dK][dV][dA][dE][dK][dL][dK][dE][dA][dF]-OH)
red cell lysis (hemolysis) after gavage [1]: resistant to hemolysis | resistance of circulating mouse LDL to oxidation (monocyte chemotactic activity) [3]: resistant to oxidation | monocyte chemotactic activity induced by LDL treated with peptide in vitro [4]: significantly different from LDL

Ac-DWLKAFYDKVAEKLKEAF-NH2 [Peptide L-2F, Ac-D-W-L-K-A-F-Y-D-K-V-A-E-K-L-K-E-A-F-NH2]
monocyte chemotaxis induced by LDL from mice given 2F by gavage [3]: readily induced monocyte chemotaxis | monocyte chemotactic activity induced by LDL treated with peptide in vitro [4]: significantly different from LDL; also recorded: equally able to block LDL oxidation and LDL-induced monocyte chemotactic activity

B1: Mouse apo A-I: mouse apo A-I isolated from the plasma of C57BL/6J mice (protein, UniProt Q00623 25-264, looked up)
Apolipoprotein A-I: DEPQSQWDKVKDFANVYVDAVKDSGRDYVSQFESSSLGQQLNLNLLENWDTLGSTVSQLQERLGPLTRDFWDNLEKETDWVRQEMNKDLEEVKQKVQPYLDEFQKKWKEDVELYRQKVAPLGAELQESARQKLQELQGRLSPVAEEFRDRMRTHVDSLRTQLAPHSEQMRESLAQRLAELKSNPTLNEYHTRAKTHLKTLGEKARPALEDLRHSLMPMLETLKTQVQSVIDKASETLTAQ
Max. % in plasma [5]: 13.5% | Time (h) to max. CPM ([5]; ip): 1.74 h | T½ ([5]; ip): 15.7 h | antibodies against the injected material [6]: No antibodies were detected | HDL as percent of total cholesterol [7]: (9.34 ± 1.19%*) | IDL + LDL as percent of total cholesterol [7]: (42.44 ± 2.46%) | VLDL as percent of total cholesterol [7]: (48.23 ± 2.75%) | HDL cholesterol ([7]; mean ± SEM): 19.50 ± 3.07 mg/dL | IDL + LDL cholesterol ([7]; mean ± SEM): 87.86 ± 8.34 mg/dL | TC (total cholesterol) ([7]; mean ± SEM): 207.45 ± 16.94 mg/dL | VLDL cholesterol ([7]; mean ± SEM): 100.08 ± 9.73 mg/dL | mean lesion cross-sectional area compared with PBS-injected animals [8]: no difference in lesion area | toxicity ([9]; 16 weeks daily i.p. injection): No toxicity | Body Weight [9, 10]: 21.16 ± 0.34 g | Liver Weight [9, 10]: 1.72 ± 0.04 g | Liver: Body (percentage) [9, 10]: 8.15 ± 0.23% | mice died from unexplained causes ([9]; during the prolonged diet studies, groups of 20): Two

Reference: patent publication US7144862B2, “Orally administered peptides to ameliorate atherosclerosis” (The Regents of the University of California, priority 2000, dated 2006)
